In patent publication US20230212587A1, “Mutant Hydroxyphenylpyruvate Dioxygenase Polypeptide, Encoding Gene Thereof and Use Therefor” (Beijing Dabeinong Biotechnology Co., Ltd., priority 2019, published 2023):

Tested on: Arabidopsis thaliana T1 plants
Test: Topramezone tolerance of transgenic Arabidopsis thaliana T1 plants (pesticide damage grade by bleached leaf area, score, resistance evaluation)
Assay type: in vivo
Conditions: for Grade 0 (number of plants) / Grade 1 (number of plants) / Grade 2 (number of plants) / Grade 3 (number of plants) / Resistance Grade / score: mutation combination, Table 8; for Classification and statistics of pesticide damage grade Grade 0 / Classification and statistics of pesticide damage grade Grade 1 / Classification and statistics of pesticide damage grade Grade 2 / Classification and statistics of pesticide damage grade Grade 3 / Classification and statistics of the grade of pesticide damage Grade 0 / Classification and statistics of the grade of pesticide damage Grade 1 / Classification and statistics of the grade of pesticide damage Grade 2 / Classification and statistics of the grade of pesticide damage Grade 3: number of plants (of 16) in this grade; for Classification and statistics of pesticide damage grade Grade 0 / Classification and statistics of pesticide damage grade Grade 1 / Classification and statistics of pesticide damage grade Grade 2 / Classification and statistics of pesticide damage grade Grade 3 / Scores / Resistance evaluation / Classification and statistics of the grade of pesticide damage Grade 0 / Classification and statistics of the grade of pesticide damage Grade 1 / Classification and statistics of the grade of pesticide damage Grade 2 / Classification and statistics of the grade of pesticide damage Grade 3: 7 DAT; for Scores: score for pesticide damage 0-100
Outline: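 Eighteen days after sowing, wild-type and HPPD-transgenic T1 Arabidopsis receive a topramezone spray at 1×, 2× or 4× field rate (25–100 g ai/ha) or water. Seven days later each plant is graded by its proportion of bleached leaf area.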

[1] = HPPDs from different species, topramezone 25 g ai/ha (1x)
[2] = HPPDs from different species, topramezone 100 g ai/ha (4x)

Row | Molecule | Grade 0 (number of plants) (topramezone 25 g ai/ha) | Grade 1 (number of plants) (topramezone 25 g ai/ha) | Grade 2 (number of plants) (topramezone 25 g ai/ha) | Grade 3 (number of plants) (topramezone 25 g ai/ha) | Resistance Grade (topramezone 25 g ai/ha) | score (topramezone 25 g ai/ha) | Grade 0 (number of plants) (topramezone 100 g ai/ha) | Grade 1 (number of plants) (topramezone 100 g ai/ha) | Grade 2 (number of plants) (topramezone 100 g ai/ha) | Grade 3 (number of plants) (topramezone 100 g ai/ha) | Resistance Grade (topramezone 100 g ai/ha) | score (topramezone 100 g ai/ha) | Classification and statistics of pesticide damage grade Grade 0 [1] | Classification and statistics of pesticide damage grade Grade 1 [1] | Classification and statistics of pesticide damage grade Grade 2 [1] | Classification and statistics of pesticide damage grade Grade 3 [1] | Classification and statistics of pesticide damage grade Grade 0 [2] | Classification and statistics of pesticide damage grade Grade 1 [2] | Classification and statistics of pesticide damage grade Grade 2 [2] | Classification and statistics of pesticide damage grade Grade 3 [2] | also measured
1 | AsHPPDm-F372A-A110: Avena sativa HPPD with F372A and deletion of alanine at position 110, SEQ ID NO: 412 (protein, AsHPPDm-F372A-A110 Amino Acid Sequence) MPPTPATATGAAAAAVTPEHAARSFPRVVRVNPRSDRFPVLSFHHVELWCADAASAAGRFSFALGAPLAARSDLSTGNSAHASLLLRSGALAFLFTAPYAPPPQEAATAATASIPSFSADAARTFAAAHGLAVRSVGVRVADAAEAFRVSVAGGARPAFAPADLGHGFGLAEVELYGDVVLRFVSYPDETDLPFLPGFERVSSPGAVDYGLTRFDHVVGNVPEMAPVIDYMKGFLGFHEFAEFTAEDVGTTESGLNSVVLANNSEAVLLPLNEPVHGTKRRSQIQTYLEYHGGPGVQHIALASNDVLRTLREMRARTPMGGFEFMAPPQAKYYEGVRRIAGDVLSEEQIKECQELGVLVDRDDQGVLLQIATKPVGDRPTFFLEMIQRIGCMEKDEVGQEYQKGGCGGFGKGNFSELFKSIEDYEKSLEVKQSVVAQKS | 20 | 0 | 0 | 0 | Highly resistant | 0 | 20 | 0 | 0 | 0 | Highly resistant | 0 | – | – | – | – | – | – | – | – | –
2 | ZmHPPDm-F372A-02: Zea mays HPPD mutant F372A, SEQ ID NO: 20 (protein, ZmHPPDm-F372A Amino Acid Sequence) MPPTPTAAAAGAAVAAASAAEQAAFRLVGHRNFVRFNPRSDRFHTLAFHHVELWCADAASAAGRFSFGLGAPLAARSDLSTGNSAHASLLLRSGSLSFLFTAPYAHGADAATAALPSFSAAAARRFAADHGLAVRAVALRVADAEEAFRTSVAAGARPAFGPVDLGRGFRLAEVELYGDVVLRYVSYPDGAAGEPFLPGFEGVASPGAADYGLSRFDHIVGNVPELAPAAAYFAGFTGFHEFAEFTTEDVGTAESGLNSMVLANNSENVLLPLNEPVHGTKRRSQIQTFLDHHGGPGVQHMALASDDVLRTLREMQARSAMGGFEFMAPPTSDYYDGVRRRAGDVLTEAQIKECQELGVLVDRDDQGVLLQIAPKPVGDRPTLFLEIIQRIGCMERDEKGQEYQKGGCGGFGKGNFSQLFKSIEDYEKSLEAMQAAAAATAQGS | – | – | – | – | – | – | – | – | – | – | – | – | 16 | 0 | 0 | 0 | 4 | 12 | 0 | 0 | Scores [1]: 0; Scores [2]: 25; Resistance evaluation [1]: highly resistant (highly resistant plants (scores 0-15)); Resistance evaluation [2]: moderately resistant (moderately resistant plants (scores 16-33))
3 | PfHPPDm-F372A-02: Pseudomonas fluorescens HPPD mutant F372A, SEQ ID NO: 30 (protein, PfHPPDm-F372A Amino Acid Sequence) MADLYENPMGLMGFEFIEFASPTPGTLEPIFEIMGFTKVATHRSKNVHLYRQGEINLILNNEPNSIASYFAAEHGPSVCGMAFRVKDSQKAYNRALELGAQPIHIDTGPMELNLPAIKGIGGAPLYLIDRFGEGSSIYDIDFVYLEGVERNPVGAGLKVIDHLTHNVYRGRMVYWANFYEKLFNFREARYFDIKGEYTGLTSKAMSAPDGMIRIPLNEESSKGAGQIEEFLMQFNGEGIQHVAFLTDDLVKTWDALKKIGMRFMTAPPDTYYEMLEGRLPDHGEPVDQLQARGILLDGSSVEGDKRLLLQIASETLMGPVFFEFIQRKGDDGFGEGNFKALFESIERDQVRRGVLTAD | 20 | 0 | 0 | 0 | Highly resistant | 0 | 16 | 4 | 0 | 0 | Highly resistant | 7 | 16 | 0 | 0 | 0 | 12 | 4 | 0 | 0 | Scores [1]: 0; Scores [2]: 8; Resistance evaluation [1]: highly resistant (highly resistant plants (scores 0-15)); Resistance evaluation [2]: highly resistant (highly resistant plants (scores 0-15))
4 | AsHPPDm-F372A-02: Avena sativa HPPD mutant F372A, SEQ ID NO: 4; gene SEQ ID NO: 6 (protein, AsHPPDm-F372A Amido Acid Sequence) MPPTPATATGAAAAAVTPEHAARSFPRVVRVNPRSDRFPVLSFHHVELWCADAASAAGRFSFALGAPLAARSDLSTGNSAHASLLLRSGALAFLFTAPYAPPPQEAATAAATASIPSFSADAARTFAAAHGLAVRSVGVRVADAAEAFRVSVAGGARPAFAPADLGHGFGLAEVELYGDVVLRFVSYPDETDLPFLPGFERVSSPGAVDYGLTRFDHVVGNVPEMAPVIDYMKGFLGFHEFAEFTAEDVGTTESGLNSVVLANNSEAVLLPLNEPVHGTKRRSQIQTYLEYHGGPGVQHIALASNDVLRTLREMRARTPMGGFEFMAPPQAKYYEGVRRIAGDVLSEEQIKECQELGVLVDRDDQGVLLQIATKPVGDRPTFFLEMIQRIGCMEKDEVGQEYQKGGCGGFGKGNFSELFKSIEDYEKSLEVKQSVVAQKS | 20 | 0 | 0 | 0 | Highly resistant | 0 | 20 | 0 | 0 | 0 | Highly resistant | 0 | – | – | – | – | – | – | – | – | resistance evaluation stated in the text (Arabidopsis thaliana T1 plants sprayed with topramezone, all tested concentrations): highly resistant (highly resistant plants (scores 0-15)); Classification and statistics of the grade of pesticide damage Grade 0 (topramezone 25 g ai/ha (1x)): 16; Classification and statistics of the grade of pesticide damage Grade 1 (topramezone 25 g ai/ha (1x)): 0; Classification and statistics of the grade of pesticide damage Grade 2 (topramezone 25 g ai/ha (1x)): 0; Classification and statistics of the grade of pesticide damage Grade 3 (topramezone 25 g ai/ha (1x)): 0; Classification and statistics of the grade of pesticide damage Grade 0 (topramezone 50 g ai/ha (2x)): 16; Classification and statistics of the grade of pesticide damage Grade 1 (topramezone 50 g ai/ha (2x)): 0; Classification and statistics of the grade of pesticide damage Grade 2 (topramezone 50 g ai/ha (2x)): 0; Classification and statistics of the grade of pesticide damage Grade 3 (topramezone 50 g ai/ha (2x)): 0; Classification and statistics of the grade of pesticide damage Grade 0 (topramezone 100 g ai/ha (4x)): 16; Classification and statistics of the grade of pesticide damage Grade 1 (topramezone 100 g ai/ha (4x)): 0; Classification and statistics of the grade of pesticide damage Grade 2 (topramezone 100 g ai/ha (4x)): 0; Classification and statistics of the grade of pesticide damage Grade 3 (topramezone 100 g ai/ha (4x)): 0; Scores (topramezone 25 g ai/ha (1x)): 0; Scores (topramezone 50 g ai/ha (2x)): 0; Scores (topramezone 100 g ai/ha (4x)): 0; Resistance evaluation (topramezone 25 g ai/ha (1x)): highly resistant (highly resistant plants (scores 0-15)); Resistance evaluation (topramezone 50 g ai/ha (2x)): highly resistant (highly resistant plants (scores 0-15)); Resistance evaluation (topramezone 100 g ai/ha (4x)): highly resistant (highly resistant plants (scores 0-15))
